Measured values reported in publication PMC12395300 (ACS Central Science, 2025).

Target: PD1 (as used in the ELISA) (Mus musculus, UniProt Q02242)
Sequence (Q02242 25-288): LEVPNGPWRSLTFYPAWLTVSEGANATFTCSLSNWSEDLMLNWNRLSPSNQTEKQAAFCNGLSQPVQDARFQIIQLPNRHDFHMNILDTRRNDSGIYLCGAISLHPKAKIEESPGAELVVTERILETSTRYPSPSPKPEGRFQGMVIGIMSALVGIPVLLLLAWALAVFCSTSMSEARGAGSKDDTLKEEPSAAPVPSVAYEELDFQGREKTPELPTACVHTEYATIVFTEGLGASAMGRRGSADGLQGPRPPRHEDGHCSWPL

B1: anti-hPD1 (pembrolizumab) (antibody, V domains shown)
VH: QVQLVQSGVEVKKPGASVKVSCKASGYTFTNYYMYWVRQAPGQGLEWMGGINPSNGGTNFNEKFKNRVTLTTDSSTTTAYMELKSLQFDDTAVYYCARRDYRFDMGFDYWGQGTTVTVSS
VL: EIVLTQSPATLSLSPGERATLSCRASKGVSTSGYSYLHWYQQKPGQAPRLLIYLASYLESGVPARFSGSGSGTDFTLTISSLEPEDFAVYYCQHSRDLPLTFGGGTKVEIK
B1: binds.
